Earlier results as cited in paper PMC2994244.
Like-named read-outs stand apart in the source and are kept apart here.

What was measured:
ACP (Escherichia coli) [1] = biological target: ACP (Escherichia coli) (UniProt P0A6A8)
ACP (Escherichia coli) [2] = biological target: ACP (Escherichia coli) (UniProt P0A6A8); remark: listed apart in the source

Chain of UniProt P0A6A8 (P0A6A8 2-78): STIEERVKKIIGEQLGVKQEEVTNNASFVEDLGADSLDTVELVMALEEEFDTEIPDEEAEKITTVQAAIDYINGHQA

Row | Kd (ACP (Escherichia coli) [1]) | Substance | Kd (ACP (Escherichia coli) [2])
1 | 180 nM | KASI (from UniProt P0A953) | 
2 |  | KASII (from UniProt P0AAI5) | 70 nM
